According to article PMC4698670:

Tests used:
[1] = target: T1, recombinant human PRX1 (Sigma-Aldrich) (human) (UniProt Q06830)
T1 sequence: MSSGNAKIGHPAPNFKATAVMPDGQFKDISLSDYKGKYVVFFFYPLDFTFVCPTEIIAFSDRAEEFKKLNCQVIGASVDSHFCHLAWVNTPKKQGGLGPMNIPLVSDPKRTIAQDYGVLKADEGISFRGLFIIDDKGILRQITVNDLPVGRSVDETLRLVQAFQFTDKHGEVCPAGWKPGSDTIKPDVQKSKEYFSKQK

[2] = target: T1, recombinant human PRX1 (Sigma-Aldrich) (human); remark: listed apart in the source

B1: recombinant fortilin_(ΔL7R) tagged with Strep-tag (natural protein)
chain: MIIYRDRISHDEMFSDIYKIREIADGLCLEVEGKMVSRTEGNIDDSLIGGNASAEGPEGEGTESTVITGVDIVMNHHLQETSFTKEAYKKYIKDYMKSIKGKLEEQRPERVKPFMTGAAEQIKHILANFKNYQFFIGENMNPDGMVALLDYREDGVTPYMIFFKDGLEMEKC
- PRX1 peroxidase activity in vitro (NADPH consumption rate, reaction mix normalized to 1.00; PRX1 alone 4.38) with fortilin (ΔL7R) added [1]: 5.9 A.U.
- decrease of PRX1 enzymatic activity (NADPH consumption rate) by Mst1 in the presence of fortilin (ΔL7R) (PRX1 alone: 75.3% decrease) [2]: 77.9 % decrease
